US20220363752A1 (VERSEAU THERAPEUTICS, published 2022)
Primed or numbered codes have the meaning given here. Biotin′ = not defined here

T1: LRRC25(126-145) biotin peptide (human, not fully specified; N-terminal acetyl; C-terminal GGK-Biotin; native Cys changed to Ser)
T1 peptide: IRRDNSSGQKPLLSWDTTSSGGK

T2: LRRC25(21-40) biotin peptide (human, not fully specified; N-terminal NH2; C-terminal GGK-Biotin; native Cys changed to Ser)
T2 peptide: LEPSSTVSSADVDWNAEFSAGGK

T3: LRRC25(36-55) biotin peptide (human, not fully specified; N-terminal NH2; C-terminal GGK-Biotin; native Cys changed to Ser)
T3 peptide: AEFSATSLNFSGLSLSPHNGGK

T4: LRRC25(81-100) biotin peptide (human, not fully specified; N-terminal acetyl; C-terminal GGK-Biotin)
T4 peptide: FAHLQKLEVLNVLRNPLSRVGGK

T5: LRRC25(141-159) biotin peptide (human, not fully specified; N-terminal acetyl; C-terminal GGK-Biotin; native Cys changed to Ser)
T5 peptide: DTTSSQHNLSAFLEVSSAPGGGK

T6: LRRC25(111-130) biotin peptide (human, not fully specified; N-terminal acetyl; C-terminal GGK-Biotin; native Cys changed to Ser)
T6 peptide: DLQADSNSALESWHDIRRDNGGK

T7: LRRC25(150-165) biotin peptide (human)
T7 peptide: Ac-SAFLEVSSAPGLASATGG-{Biotin′}

T8: LRRC25(66-85) biotin peptide (human, not fully specified; N-terminal acetyl; C-terminal GGK-Biotin)
T8 peptide: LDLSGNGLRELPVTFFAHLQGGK

T9: LRRC25(51-69) biotin peptide (human, not fully specified; N-terminal acetyl; C-terminal GGK-Biotin)
T9 peptide: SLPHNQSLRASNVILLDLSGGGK

T10: LRRC25(96-115) biotin peptide (human, not fully specified; N-terminal acetyl; C-terminal GGK-Biotin; native Cys changed to Ser)
T10 construct: also called Biotin LRRC25 (96-115) peptide
T10 peptide: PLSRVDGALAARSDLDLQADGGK


How the values were obtained:
[1] = target: T11, His-tagged human LRRC25 extracellular domain protein, human LRRC25-His (human, UniProt Q8N386 21-165); experiment: ELISA, plate-immobilized antigen
T11 construct: The entry holds the extracellular domain, a GSG linker and the His tag; also called LRRC25(ECD)-HIS
Procedure: (§1) To establish the relative binding strengths of anti-LRRC25 antibodies against human LRRC25, and their cross-reactivity with cynomolgus monkey LRRC25, antibody binding curve analyses were performed and EC50 values against plate-immobilized recombinant human and cyno LRRC25 proteins were determined.
(§2) A typical ELISA was performed by coating overnight in PBS, pH 7.4, at 4° C. in high binding microtiter wells with 1 ug/mL/100 ul per well of human LRRC25-His or cyno LRRC25-His. An anti-human LRRC25 antibody (2A3, LS Bio, LS-C174039-100) and anti-HIS-HRP (Miltenyi Biotec; 130-092-783) served as coating controls for the human and cyno LRRC25 proteins, respectively. […] Anti-LRRC25 antibodies were added (100 ul per well) at 500 nM and serially diluted 3-fold in assay buffer (1% skimmed milk in PBS, pH 7.4). The plate was incubated with gentle agitation for 1 h at room temperature. The plate was washed 3× and HRP-conjugated secondary antibody in assay buffer added [100 ul per well; goat anti-human IgG (Jackson Immunoresearch, cat #715-035-150)], and the plate was incubated as before. Antibody bound to plate-immobilized LRRC25(ECD)-HIS was determined at A450 nm using HRP substrate (3,3′,5,5′-tetramethylbenzidine (TMB); eBioscience; 00-4201-56); 100 μl/well).

[2] = target: T12, His-tagged cynomolgus monkey LRRC25 extracellular domain protein, cyno LRRC25-His (cynomolgus monkey); experiment: ELISA, plate-immobilized antigen
T12 construct: The entry holds the extracellular domain, a GSG linker and the His tag
Procedure: as §1, §2

[3] = target: T1, LRRC25(126-145) biotin peptide; experiment: peptide ELISA
Procedure: (§3) To establish if functional chimera anti-LRRC25 antibodies recognize particular regions of LRRC25, ELISA experiments were performed using 10 plate-immobilized 16- to 20-mer overlapping LRRC25(ECD) biotin peptides (Table 7). Biotinylated human LRRC25-His served as a positive control. A typical ELISA was performed by coating overnight at 4° C., 3 ug/mL/25 ul per well of streptavidin (Jackson Immunoresearch, Cat. #016-030-084) in PBS in half-area high binding microtiter wells (Corning Cat. #3690). […] Biotin peptides or biotinylated human LRRC25-His protein were added in duplicate (2 ug/mL/25 ul per well) in assay buffer (blocking buffer containing 0.05% tween 20) and the plate incubated for 45 min at 37° C. The plate was washed as before, 20 nM anti-LRRC25 antibodies in assay buffer added in duplicate into appropriate wells, and the plate incubated as before. The plate was washed and HRP-conjugated secondary antibody in assay buffer added [25 ul per well; goat anti-human IgG (Jackson Immunoresearch, Cat. #715-035-150)], and incubated as before. Antibody bound to plate-immobilized peptide(s) or protein was determined at A450 nm using HRP substrate (3,3′,5,5′-tetramethylbenzidine (TMB); eBioscience; Cat. #00-4201-56); 100 μl/well).

[4] = target: T2, LRRC25(21-40) biotin peptide; experiment: peptide ELISA
Procedure: as §3

[5] = target: T3, LRRC25(36-55) biotin peptide; experiment: peptide ELISA
Procedure: as §3

[6] = target: T4, LRRC25(81-100) biotin peptide; experiment: peptide ELISA
Procedure: as §3

[7] = target: T5, LRRC25(141-159) biotin peptide; experiment: peptide ELISA
Procedure: as §3

[8] = target: T6, LRRC25(111-130) biotin peptide; experiment: peptide ELISA
Procedure: as §3

[9] = target: T7, LRRC25(150-165) biotin peptide; experiment: peptide ELISA
Procedure: as §3

[10] = target: T8, LRRC25(66-85) biotin peptide; experiment: peptide ELISA
Procedure: as §3

[11] = target: T9, LRRC25(51-69) biotin peptide; experiment: peptide ELISA
Procedure: as §3

[12] = target: T13, biotinylated human LRRC25-His protein (human, UniProt Q8N386 21-165, biotinylated (sites not given)); experiment: ELISA, 20 nM antibody, biotinylated antigen on streptavidin plate
T13 construct: also called Biotin LRRC25-His; biotinylated LRRC25 protein
Procedure: as §3

[13] = target: T10, LRRC25(96-115) biotin peptide; experiment: as above
Procedure: as §3

[14] = target: T12, His-tagged cynomolgus monkey LRRC25 …; experiment: ELISA, plate-immobilized cyno LRRC25-His
Procedure: as §2

[15] = target: T10, LRRC25(96-115) biotin peptide; experiment: peptide ELISA
Procedure: as §3

T12 sequence (chain, as listed by the source limits assumed): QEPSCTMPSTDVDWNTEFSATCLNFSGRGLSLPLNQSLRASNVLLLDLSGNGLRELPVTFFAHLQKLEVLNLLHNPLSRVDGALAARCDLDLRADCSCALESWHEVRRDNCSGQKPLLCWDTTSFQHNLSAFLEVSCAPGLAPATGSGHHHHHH
T11 sequence (Q8N386 other isoform, or with tags, fused parts or gaps): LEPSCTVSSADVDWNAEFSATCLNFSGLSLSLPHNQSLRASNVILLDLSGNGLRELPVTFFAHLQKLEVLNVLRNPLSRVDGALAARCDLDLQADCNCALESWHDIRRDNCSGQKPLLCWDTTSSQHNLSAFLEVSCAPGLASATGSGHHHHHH
T13 sequence (Q8N386 other isoform, or with tags, fused parts or gaps): as above

| EC50 [1] [nM] | EC50 [2] [nM] | binding result [3] | binding result [4] | binding result [5] | binding result [6] | binding result [7] | binding result [8] | binding result [9] | binding result [10] | binding result [11] | absorbance (A450) [12] [A450] | absorbance (A450) [13] [A450] | binding result [14] | binding result [15] | Binder |
| --- | --- | --- | --- | --- | --- | --- | --- | --- | --- | --- | --- | --- | --- | --- | --- |
| 4.1 | > 500 | no binding (tested: 20 nM) | no binding (tested: 20 nM) | no binding (tested: 20 nM) | no binding (tested: 20 nM) | no binding (tested: 20 nM) | no binding (tested: 20 nM) | no binding (tested: 20 nM) | no binding (tested: 20 nM) | no binding (tested: 20 nM) | 0.456 | 2.33 |  |  | anti-LRRC25 chimeric antibody 1A01 (antibody, human IgG4, V domains shown, also called mAb 1A01) VH: EVKLLESGGGLVKPGGSLKLSCAASGFTFSSYAMSWVRQTPEKRLEWVASISRGGNTYYPDSVKGRFTISRDNARNILYLQMSSLRSEDTAMYYCARGNYGNSPFAYWGQGTLVTVSA VL: DIVMTQSPASLAVSLGQRATISCRASKSVSTSGYSYMHWYQQKPGQPPKLLIYLASNLESGVPARFSGSGSGTDFTLNIHPVEEEDAATYYCQHSRELPFTFGSGTKLEIKR |
| 73.4 | ~1000 | no binding (tested: 20 nM) | no binding (tested: 20 nM) | no binding (tested: 20 nM) | no binding (tested: 20 nM) | no binding (tested: 20 nM) | no binding (tested: 20 nM) | no binding (tested: 20 nM) | no binding (tested: 20 nM) | no binding (tested: 20 nM) | 0.421 | 0.334 |  |  | anti-LRRC25 chimeric antibody 1C10 (antibody, human IgG4, V domains shown) VH: EEKLDESGGGLVKPGGSLKLSCAASGFTFSSYAMSWVRQTPEKRLEWVASISRGGNTYYPDSVKGRFTISRDNARNILYLQMSSLRSEDTAMFYCARGDYGSSLFAYWGQGTLVTVSA VL: DIVMTQAAFSNPVTLGTSASISCRSSKSLLHSNGITYLYWYLQKPGQSPQLLIYQMSNLASGVPDRFSSSGSGTDFTLRISRVEAEDVGVYYCAQNLELPFTFGSGTKLEIKR |
| 0.58 | ~500 | no binding (tested: 20 nM) | no binding (tested: 20 nM) | no binding (tested: 20 nM) | no binding (tested: 20 nM) | no binding (tested: 20 nM) | no binding (tested: 20 nM) | no binding (tested: 20 nM) | no binding (tested: 20 nM) | no binding (tested: 20 nM) | 1.89 | 2.65 |  |  | anti-LRRC25 chimeric antibody 1E11 (antibody, human IgG4, V domains shown) VH: EVQLLETGGGLVKPGGSLKLSCAASGFTFSSSAMSWVRQTPEKRLEWVTSISRGGNTYYPDSVKGRFTISRDNARNILYLQMSSLRSEDTAMYYCARGQELRLFAYWGQGTLVTVSA VL: DIVMTQDAFSNPVTLGTSASISCRSSKSLLHSNGITYLYWYLQKPGQSPQLLIYQMSNLASGVPDRFSSSGSGTDFTLRISRVEAEDVGVYYCAQNLELPFTFGSGTKLEIKR |
| ~1000 |  | no binding (tested: 20 nM) | no binding (tested: 20 nM) | no binding (tested: 20 nM) | no binding (tested: 20 nM) | no binding (tested: 20 nM) | no binding (tested: 20 nM) | no binding (tested: 20 nM) | no binding (tested: 20 nM) | no binding (tested: 20 nM) | 0.152 | 0.052 | no binding (tested: 500 nM) | no binding (tested: 20 nM) | anti-LRRC25 chimeric antibody 3E08 (antibody, human IgG4, V domains shown) VH: EVKLLESGGGLVKPGGSLKLSCAASGFTLSSYAMSWVRQTPEKRLEWVASISRSNTTYYPDSVKGRFTISRDNAKNILYLQMSSLRSEDTAMYYCARGVLLRPFASWGQGTLVTVSA VL: DIVMTQDAFSNPVTLGTSASISCRSSKSLLHSNGITYLYWYLQKPGQSPQLLIYQMSNLASGVPDRFSSSGSGTDFTLRISRVEAEDVGVYYCAQNLELPLTFGAGTKLELKR |
| 1.3 | 42.5 | no binding (tested: 20 nM) | no binding (tested: 20 nM) | no binding (tested: 20 nM) | no binding (tested: 20 nM) | no binding (tested: 20 nM) | no binding (tested: 20 nM) | no binding (tested: 20 nM) | no binding (tested: 20 nM) | no binding (tested: 20 nM) | 1.88 | 1.64 |  |  | anti-LRRC25 chimeric antibody 1B03 (antibody, human IgG4, V domains shown) VH: EVQLVESGGGLVKPGGSLKLSCAASGFTFSSYAMSWVRQTPEKRLEWVASISRGGNTYYPDSMKGRFTISRDNARNILYLQMSSLRSEDTAMYYCARGQELRLFAYWGQGTLVTVSA VL: QILLTQSPASLAVSLGQRATISCRASESVDSYGNSFMHWYQQKPGQPPKLLIYLASNLESGVPARFSGSGSRTDFTLTIDPVEADDAATYYCQQNNEDPWTFGGGTKLEIKR |
